Measurements taken from the DeepSol protein solubility set.

Assay: soluble on expression in E. coli; label from the status in PepcDB or PDB records
In the case of “GPGSMTVVRAALLGFGTVGQGIYKIVQQRREQLKQKLGGAELVIVKILVRDLRKRSRVLPDGYASDAKLFTNNIEDVFRADVQVIFEATVGEEPAFTYLQRAIVEHGCSVITANKVMFARYGATLQELAASCTPTSSFPATRVYVGFEATVAAGVPIIKTLQNMCHVQQVRKIEGIVNGTSNYILTELREYPEKSFEEVLKKSQELGYAEADPTNDISGHDAFMKLLVMVAIAFGHQPSRSTVPVTGIDTLTPEMLQDARAKGLRYRHVVSAAMEGAATSSCALKSSAAEGEEAQPRTPPLHERLTCSVKPMLLGPEHPLYHMDGTTSAVSVWTDYLGVVTISGPGAGMYCTASAMMEDYAVWMEAFRRP”, the “soluble on expression in E. coli” value is reported as “not soluble”.
With “GPGSMVRIRSLAKELRQLELQKQTASLPPPRAASSDDVLDDATRSATSSRKPEAPSCSSSPRDGDILTNAAHASTTAEAEAVPSSSPASRTVAAAEPQPTSAFPLSQLSLSSPDGAHNRSRNSLYSLGGSRFNILLGGSHGDGGACRKSQVRKATRACASGGGKNGAATATATQVPQRRGEAGGSSLLEKGKDGEVVANPAPPLGTSSGIPTRPPFKRLLAQPFSHVLVCDFEATCASGSVHYPHEIIEFPVVVLDTATLRIVAEFHRYVRPLRNPKLTAFCTELTGITQEMVDVADPLPTVVAQFQDWLKTEVYPLCWMWARHYGPNRLSHNLKSEQRRFVYDEHTDAAKANTSAEAMVCMATDGPWDMRRFMHQCSVLRDGVDFPPVCYRYINVRHSYSDHFKCRQAKLTHMLKKMSMSFEGRRHSGIDDTRNIARVLAELFARGYRVHHVSTITYAHRGDAFLESNRAAQELLSEFGETDETHTSKHANAHKGGGRQRGVKRA” the “soluble on expression in E. coli” value was “not soluble”.
For “GPGSRVRDKKDMDASELELRRVQGSLNKLTDKNFDAVVEEALSPDLVLNPLVLKGAVDIIFNKAMAEPVFSGIYAQLCQRIKVYEQDLVAEAAENPTSELGQLMAAVQAGDEDQKNVNGRVRNALVKRCQEFHDSFVKQPPPRNAEAEEQLRKRNMANIKFVGELYMRSLISHRVILAVCSTALVLGFIPSPKLVTTDADLEMMVSLMNVIGKRFDENAGMALNHVPKDAAAAAHPHDTIWRALNSSMNDPRFSRRIRFLIQNLLEWRNDGWKPKESPAQGSSGGSADDSNNTT”, the “soluble on expression in E. coli” value was “not soluble”.
With “GPLGMATEEAIIRIPPYHYIHVLDQNSNVSRVEVGPKTYIRQDNERVLFAPVRMVTVPPRHYCIVANPVSRDAQSSVLFDVTGQVRLRHADQEIRLAQDPFPLYPGELLEKDITPLQVVLPNTALHLKALLDFEDKNGDKVMAGDEWLFEGPGTYIPQKEVEVVEIIQATVIKQNQALRLRARKECFDRDGKERVTGEEWLVRSVGAYLPAVFEEVLDLVDAVILTEKTALHLRARQNFKDLRGVAHRTGEEWLVTVQDTEAHVPDVYEEVLGVVPITTLGPRHYCVILDPMGPDGKNQLGQKRVVKGEKSFFLQPGERLERGIQDVYVLSEQQGLLLKALQPLEEGEGEERVAHQAGDRWLIRGPLEYVPSAKVEVVEERQAIPLD” the “soluble on expression in E. coli” value was “soluble”.
In the case of “GPLGSASAAASGKEGVEITYGSAIKLMHEKTKFRLHSHDVPYGSGSGQQSVTGFPGVVDSNSYWIVKPVPGTTEKQGDAVKSGATIRLQHMKTRKWLHSHLHASPISGNLEVSCFGDDTNSDTGDHWKLIIEGSGKTWKQDQRVRLQHIDTSGYLHSHDKKYQRIAGGQQEVCGIREKKADNIWLAAEGVYLPLNESSK”, the “soluble on expression in E. coli” value is reported as “soluble”.
For “GPLGSEAQSEKEEAPKPLHKVVVCVSKKLSKKQSELNGIAASLGADYRWSFDETVTHFIYQGRPNDTNREYKSVKERGVHIVSEHWLLDCAQECKHLPESLYPHTYNPK”, the “soluble on expression in E. coli” value was “soluble”.
With “GPLGSLGRRWGPNVQRLACIKKHLRSQGITMDELPLIGGCELDLACFFRLINEMGGMQQVTDLKKWNKLADMLRIPKTAQDRLAKLQEAYCQYLLSYDSLSPEEHRRLEKEVLMEKEILEK” the “soluble on expression in E. coli” value was “soluble”.
With “GPLGSPRNANDNNQFYQQKQRQALGEQLYKKVSAKTSNEEAAGKITGMILDLPPQEVFPLLESDELFEQHYKEASAAYESFKKEQEQQTEQA” the “soluble on expression in E. coli” value was “soluble”.
With “GPLGSPRYELGEELRDKIKQEPSFSNMVSAKKFYNKAIKDFTAPKEGAEVVSVKTHIMRPIDFMLMGLREEFNLYSEDGAHLSAPGTIRLLREKNLLPEEQIARIESVYNQAMSKRFELHAEHKKEHDEMPYSDAKAMLDEVAKIRELGVQRVTRIENLENAKKLWDNANSMLEKGNISGYLKAANELHKFMKEKNLKEDDLRPELSDKTISPKGYAILQSLWGAASDYSRAAATLTESTVEPGLVSAVNKMSAFFMDCKLSPNERATPDPDFKVGKSKILVGIMQFIKDVADPTSKIWMHNTKALMNHKIAAIQKLERSNNVNDETLESVLSSKGENLSEYLSYKYATKDEGREHRYTASTE” the “soluble on expression in E. coli” value was “soluble”.
With “GQNHHEVVKFMDVYQRSYCHPIETLVDIFQEYPDEIEYIFKPSCVPLMRCGGCCNDEGLECVPTEESNITMQIMRIKPHQGQHIGEMSFLQHNKCECRPKKD” the “soluble on expression in E. coli” value was “soluble”.
With “GRGSEHLTIGFKVENAHDRILKTIKTHKLKNYIKESVNFLNSGLTKTNYLGSSNDNIELVDFQNIMFYGDAEVGDNQQPFTFILDTGSANLWVPSVKCTTAGCLTKHLYDSSKSRTYEKDGTKVEMNYVSGTVSGFFSKDLVTVGNLSLPYKFIEVIDTNGFEPTYTASTFDGILGLGWKDLSIGSVDPIVVELKNQNKIENALFTFYLPVHDKHTGFLTIGGIEERFYEGPLTYEKLNHDLYWQITLDAHVGNIMLEKANCIVDSGTSAITVPTDFLNKMLQNLDVIKVPFLPFYVTLCNNSKLPTFEFTSENGKYTLEPEYYLQHIEDVGPGLCMLNIIGLDFPVPTFILGDPFMRKYFTVFDYDNHSVGIALAKKNL” the “soluble on expression in E. coli” value was “soluble”.
In the case of “GRRDNLIVGLDIGTTKICAIVGNVTEDGIDIVGIGTSPSRGMRKGVVINIESTVESIKKAVSEAELMAGCDIRSVYAGIAGGHIKGINSQGVIAIKNREVSSEDVKRVIDAAKAIAIPMDR”, the “soluble on expression in E. coli” value is reported as “not soluble”.
For “GRYEIRFSGAGGQGLILAGVIMAEAASIYDGKQAVQSQSYGPEARGGASKSEVIISDGPVDYPKATQCDALLALTQEACDKYSADLKEGGVLLVDSDLVTKLPPGNYQTTAFNIINTAKNDVGREIVANIVALGAMVALTGVVSKEAAEKAVLSRVPEAFVELNRKAFQMGFEKAL”, the “soluble on expression in E. coli” value was “not soluble”.
For “GSAGERIYNISGNGSPLADSKEIFLTVPVGGGESLRLLASDLQRHSIAQLDPEALGNIKKLSNRLAQICSSIRTHK”, the “soluble on expression in E. coli” value was “soluble”.
With “GSAPRVQEELCLVCGDRASGYHYNALTCEGCKGFFRRSVTKSAVYCCKFGRACEMDMYMRRKCQECRLKKCLAVGMRPECVVPENQCAMKRREKKAQKEKDKMTTSPSSQHGSPGIHRD” the “soluble on expression in E. coli” value was “soluble”.
With “GSASDNAAYWSIATTMRSDNKALGAVSDALGMGAAKVDTASAGMDAAIKVVTDIKAKVVAAKEQGVDKTKVQEEVSQLLDQLKSIGTSASFNGENWLVSSANATKTVVSGFVRDAGGTVSVKTTDYALDANSMLYTEGTPGTIDANSGILNATGATTTVGAKTYTQISVLDMNVGTDDLDNALYSVETALTKMTSAGAKLGSLSARIDLQSGFADKLSDTIEKGVGRLV” the “soluble on expression in E. coli” value was “not soluble”.
For “GSATASDSTRRVSVRDKLLVKEVAELEANLPCTCKVHFPDPNKLHCFQLTVTPDEGYYQGGKFQFETEVPDAYNMVPPKVKCLTKIWHPNITETGEICLSLLREHSIDGTGWAPTRTLKDVVWGLNSLFTDLLNFDDPLNIEAAEHHLRDKEDFRNKVDDYIKRYAR”, the “soluble on expression in E. coli” value was “soluble”.
In the case of “GSDDINQKVAEQLAQKAQSSSLGYDIVESLTVEVGPRLAGSEQDKVAVDWAIAKLQSLGFDRVYKEPVTVPVWRRGIAKASILSPFPQPLVVTALGGSIATPAQGLSATIVRFDTLQDLQNAEAGSLNDKIAFIDAKTERHRDGKGYGQTASGRSRGAVAAAEKGAVGIIIRSIGTDHDRMAHTGMMRYEEGVTAIPAAAISNPDADLINAMLKRDKEVVISLELGSERRGETTSYNVIAEVKGSTKADEIVLIGAHLDSWDEGTGAIDDGAGVAIVTAAAKHILDLPQKPERTIRVVLYAAEELGLLGGKTYAKEHEAELEKHYIAAESDFGAGPIYQIDWRVADTAHSPVINAMKVAEPLGVAAGNNKASGGPDVSMLPALGVPVASLRQDGSDYFDYHHTPNDTLDKINPEALAQNVAVYAQFAWVMANSKVELRPLPPKE”, the “soluble on expression in E. coli” value is reported as “soluble”.
In the case of “GSGSEPAVCEMCGIVGTREAFFSKTKRFCSVSCSRSYSSNSKK”, the “soluble on expression in E. coli” value is reported as “soluble”.
